Measurements: US20250313634A1 (WUXI BIOLOGICS SHANGHAI, published 2025)

Columns and labels:
Test in all cases: capture ELISA on coated 1.14.4; relative to silent alanine substitutions
[1] = molecular target: T1, hPD-L1_ECD.His point mutant K25A (human, UniProt Q9NZQ7 19-238)
T1 construct: extracellular domain
Description: (§1) After interacting with the supernatant that contains quantified PD-L1 mutant or human/mouse PD-L1_ECD.His protein (Sino Biological, China), HRP conjugated anti-His antibody (1:5000; Rockland Immunochemicals, Pottstown, PA) was added as detection antibody. Absorbance was normalized according to the average of control mutants. After setting an additional cutoff to the binding fold change (<0.55), the final determined epitope residues were identified.
(§2) The observed binding reductions most probably resulted from the instability or even collapse of hPD-L1 structure after alanine substitutions. After setting an additional cutoff to the binding fold change (<0.55), the final determined epitope residues were listed in Table 3.

[2] = molecular target: T2, hPD-L1_ECD.His point mutant M36A (human, UniProt Q9NZQ7 19-238)
T2 construct: extracellular domain
Description: as §1, §2

[3] = molecular target: T3, hPD-L1_ECD.His point mutant K75A (human, UniProt Q9NZQ7 19-238)
T3 construct: extracellular domain
Description: as §1, §2

[4] = molecular target: T4, hPD-L1_ECD.His point mutant A51G (human, UniProt Q9NZQ7 19-238)
T4 construct: extracellular domain
Description: as §1, §2

[5] = molecular target: T5, hPD-L1_ECD.His point mutant K189A (human, UniProt Q9NZQ7 19-238)
T5 construct: extracellular domain
Description: as §1, §2

[6] = molecular target: T6, hPD-L1_ECD.His point mutant K162A (human, UniProt Q9NZQ7 19-238)
T6 construct: extracellular domain
Description: as §1, §2

[7] = molecular target: T7, hPD-L1_ECD.His point mutant T20A (human, UniProt Q9NZQ7 19-238)
T7 construct: extracellular domain
Description: as §1, §2

[8] = molecular target: T8, hPD-L1_ECD.His point mutant S79A (human, UniProt Q9NZQ7 19-238)
T8 construct: extracellular domain
Description: as §1, §2

[9] = molecular target: T9, hPD-L1_ECD.His point mutant L175A (human, UniProt Q9NZQ7 19-238)
T9 construct: extracellular domain
Description: as §1, §2

[10] = molecular target: T10, hPD-L1_ECD.His point mutant D26A (human, UniProt Q9NZQ7 19-238)
T10 construct: extracellular domain
Description: as §1, §2

[11] = molecular target: T11, hPD-L1_ECD.His point mutant Q77A (human, UniProt Q9NZQ7 19-238)
T11 construct: extracellular domain
Description: as §1, §2

[12] = molecular target: T12, hPD-L1_ECD.His point mutant N131A (human, UniProt Q9NZQ7 19-238)
T12 construct: extracellular domain
Description: as §1, §2

[13] = molecular target: T13, hPD-L1_ECD.His point mutant G33A (human, UniProt Q9NZQ7 19-238)
T13 construct: extracellular domain
Description: as §1, §2

[14] = molecular target: T14, hPD-L1_ECD.His point mutant E188A (human, UniProt Q9NZQ7 19-238)
T14 construct: extracellular domain
Description: as §1, §2

[15] = molecular target: T15, hPD-L1_ECD.His point mutant H78A (human, UniProt Q9NZQ7 19-238)
T15 construct: extracellular domain
Description: as §1, §2

[16] = molecular target: T16, hPD-L1_ECD.His point mutant K46A (human, UniProt Q9NZQ7 19-238)
T16 construct: extracellular domain
Description: as §1, §2

[17] = molecular target: T17, hPD-L1_ECD.His point mutant P133A (human, UniProt Q9NZQ7 19-238)
T17 construct: extracellular domain
Description: as §1, §2

[18] = molecular target: T18, hPD-L1_ECD.His point mutant Y123A (human, UniProt Q9NZQ7 19-238)
T18 construct: extracellular domain
Description: as §1, §2

[19] = molecular target: T19, hPD-L1_ECD.His point mutant S169A (human, UniProt Q9NZQ7 19-238)
T19 construct: extracellular domain
Description: as §1, §2

[20] = molecular target: T20, hPD-L1_ECD.His point mutant L88A (human, UniProt Q9NZQ7 19-238)
T20 construct: extracellular domain
Description: as §1, §2

[21] = molecular target: T21, hPD-L1_ECD.His point mutant Q66A (human, UniProt Q9NZQ7 19-238)
T21 construct: extracellular domain
Description: as §1, §2

[22] = molecular target: T22, hPD-L1_ECD.His point mutant K89A (human, UniProt Q9NZQ7 19-238)
T22 construct: extracellular domain
Description: as §1, §2

[23] = molecular target: T23, hPD-L1_ECD.His point mutant I38A (human, UniProt Q9NZQ7 19-238)
T23 construct: extracellular domain
Description: as §1, §2

[24] = molecular target: T24, hPD-L1_ECD.His point mutant S93A (human, UniProt Q9NZQ7 19-238)
T24 construct: extracellular domain
Description: as §1, §2

[25] = molecular target: T25, hPD-L1_ECD.His point mutant M59A (human, UniProt Q9NZQ7 19-238)
T25 construct: extracellular domain
Description: as §1, §2

[26] = molecular target: T26, hPD-L1_ECD.His point mutant V128A (human, UniProt Q9NZQ7 19-238)
T26 construct: extracellular domain
Description: as §1, §2

T16 sequence (Q9NZQ7 19-238 K46A): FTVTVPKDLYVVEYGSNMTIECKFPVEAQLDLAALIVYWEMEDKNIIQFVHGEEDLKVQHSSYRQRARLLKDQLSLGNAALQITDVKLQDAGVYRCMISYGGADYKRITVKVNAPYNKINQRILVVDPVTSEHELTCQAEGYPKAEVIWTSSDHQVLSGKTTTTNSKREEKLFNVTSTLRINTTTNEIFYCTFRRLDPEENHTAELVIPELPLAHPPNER
T19 sequence (Q9NZQ7 19-238 S169A): as the sequence (Q9NZQ7 19-238 K46A) above, with A28K, S151A counted along it
T20 sequence (Q9NZQ7 19-238 L88A): as the sequence (Q9NZQ7 19-238 K46A) above, with A28K, L70A counted along it
T6 sequence (Q9NZQ7 19-238 K162A): as the sequence (Q9NZQ7 19-238 K46A) above, with A28K, K144A counted along it
T14 sequence (Q9NZQ7 19-238 E188A): as the sequence (Q9NZQ7 19-238 K46A) above, with A28K, E170A counted along it
T15 sequence (Q9NZQ7 19-238 H78A): as the sequence (Q9NZQ7 19-238 K46A) above, with A28K, H60A counted along it
T25 sequence (Q9NZQ7 19-238 M59A): as the sequence (Q9NZQ7 19-238 K46A) above, with A28K, M41A counted along it
T3 sequence (Q9NZQ7 19-238 K75A): as the sequence (Q9NZQ7 19-238 K46A) above, with A28K, K57A counted along it
T4 sequence (Q9NZQ7 19-238 A51G): as the sequence (Q9NZQ7 19-238 K46A) above, with A28K, A33G counted along it
T9 sequence (Q9NZQ7 19-238 L175A): as the sequence (Q9NZQ7 19-238 K46A) above, with A28K, L157A counted along it
T1 sequence (Q9NZQ7 19-238 K25A): as the sequence (Q9NZQ7 19-238 K46A) above, with K7A, A28K counted along it
T10 sequence (Q9NZQ7 19-238 D26A): as the sequence (Q9NZQ7 19-238 K46A) above, with D8A, A28K counted along it
T17 sequence (Q9NZQ7 19-238 P133A): as the sequence (Q9NZQ7 19-238 K46A) above, with A28K, P115A counted along it
T12 sequence (Q9NZQ7 19-238 N131A): as the sequence (Q9NZQ7 19-238 K46A) above, with A28K, N113A counted along it
T7 sequence (Q9NZQ7 19-238 T20A): as the sequence (Q9NZQ7 19-238 K46A) above, with T2A, A28K counted along it
T23 sequence (Q9NZQ7 19-238 I38A): as the sequence (Q9NZQ7 19-238 K46A) above, with I20A, A28K counted along it
T18 sequence (Q9NZQ7 19-238 Y123A): as the sequence (Q9NZQ7 19-238 K46A) above, with A28K, Y105A counted along it
T11 sequence (Q9NZQ7 19-238 Q77A): as the sequence (Q9NZQ7 19-238 K46A) above, with A28K, Q59A counted along it
T21 sequence (Q9NZQ7 19-238 Q66A): as the sequence (Q9NZQ7 19-238 K46A) above, with A28K, Q48A counted along it
T22 sequence (Q9NZQ7 19-238 K89A): as the sequence (Q9NZQ7 19-238 K46A) above, with A28K, K71A counted along it
T8 sequence (Q9NZQ7 19-238 S79A): as the sequence (Q9NZQ7 19-238 K46A) above, with A28K, S61A counted along it
T5 sequence (Q9NZQ7 19-238 K189A): as the sequence (Q9NZQ7 19-238 K46A) above, with A28K, K171A counted along it
T13 sequence (Q9NZQ7 19-238 G33A): as the sequence (Q9NZQ7 19-238 K46A) above, with G15A, A28K counted along it
T24 sequence (Q9NZQ7 19-238 S93A): as the sequence (Q9NZQ7 19-238 K46A) above, with A28K, S75A counted along it
T2 sequence (Q9NZQ7 19-238 M36A): as the sequence (Q9NZQ7 19-238 K46A) above, with M18A, A28K counted along it
T26 sequence (Q9NZQ7 19-238 V128A): as the sequence (Q9NZQ7 19-238 K46A) above, with A28K, V110A counted along it

B1: 1.14.4 (antibody, V domains shown)
VH: EVQLLESGGGLVQPGGSLRLSCAASGFTFSSYAMSWVRQAPGKGLEWVSGISGSGGFTYYADSVKGRFTISRDNSKNTLYLQMNSLRAEDTAVYYCAKPPRGYNYGPFDYWGQGTLVTVSS
VL: SYVLTQPPSVSVAPGQTARITCGGNNIGSKSVHWYQQKPGQAPVLVVYDDSDRPSGIPERFSGSNSGNTATLTISRVEAGDEADYYCQVWDSSSDHVVFGGGTKLTVL
notes: Fully human monoclonal antibody with a human constant region of IgG4 isotype
B1 was tested. Which fold change [1] did it give?
Its fold change is 0.857 fold.

And the fold change [2]?
The fold change was 1.04 fold.

And the fold change [3]?
The fold change was 1.01 fold.

What about the fold change [4] of the same binder?
The fold change was 1.03 fold.

And the fold change [5]?
Its fold change is 0.759 fold.

And the fold change [6]?
Its fold change is 0.99 fold.

And the fold change [7]?
The fold change was 0.974 fold.

And the fold change [8]?
Its fold change is 0.962 fold.

What about the fold change [9] of the same binder?
Its fold change is 0.842 fold.

What about the fold change [10] of the same binder?
The fold change was 0.963 fold.

And the fold change [11]?
Its fold change is 1.01 fold.

And the fold change [12]?
Its fold change is 0.68 fold.

And the fold change [13]?
The fold change was 0.807 fold.

What about the fold change [14] of the same binder?
Its fold change is 0.833 fold.

And the fold change [15]?
Its fold change is 0.821 fold.

What about the fold change [16] of the same binder?
Its fold change is 1.08 fold.

And the fold change [17]?
Its fold change is 0.664 fold.

What about the fold change [18] of the same binder?
The fold change was 1.11 fold.

What about the fold change [19] of the same binder?
Its fold change is 0.939 fold.

And the fold change [20]?
The fold change was 1.1 fold.

What about the fold change [21] of the same binder?
The fold change was 0.979 fold.

And the fold change [22]?
Its fold change is 0.913 fold.

What about the fold change [23] of the same binder?
The fold change was 1.13 fold.

What about the fold change [24] of the same binder?
The fold change was 1.15 fold.

And the fold change [25]?
The fold change was 1.01 fold.

What about the fold change [26] of the same binder?
The fold change was 0.701 fold.
